Source: article PMC2928791 (PLoS Pathogens, 2010)

Columns and labels:
[1] = target: CAV20 non-structural protein 2C^ATPase (wt) (coxsackie A virus 20 (CAV20)); experiment: co-IP
PV GST-2C^ATPase = target: T1, PV GST-2C^ATPase (poliovirus (PV; the paper's PV is type …, UniProt P03300 1128-1456); experiment: […] (50 mM Tris-HCl pH 7.5, 140 mM NaCl, 0.1% Triton X-100, […]; conditions: both partners purified
T1 sequence: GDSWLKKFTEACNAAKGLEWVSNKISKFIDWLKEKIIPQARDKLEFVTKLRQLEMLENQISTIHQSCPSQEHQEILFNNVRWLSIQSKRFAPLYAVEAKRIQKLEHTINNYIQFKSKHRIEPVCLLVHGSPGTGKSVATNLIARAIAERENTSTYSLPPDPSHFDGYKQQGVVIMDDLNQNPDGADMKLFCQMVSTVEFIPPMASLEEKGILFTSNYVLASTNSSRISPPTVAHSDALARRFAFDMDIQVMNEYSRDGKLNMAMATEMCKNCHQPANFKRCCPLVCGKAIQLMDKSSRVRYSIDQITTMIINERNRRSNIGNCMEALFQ

CAV20 structural protein VP3 (wt) (natural protein)
percent of the level in the CAV20 2C^ATPase and CAV20 VP3 Co-IP reaction [1]: 100%

B1: PV His-tagged VP3 (natural protein)
chain: GLPVMNTPGSNQYLTADNFQSPCALPEFDVTPPIDIPGEVKNMMELAEIDTMIPFDLSATKKNTMEMYRVRLSDKPHTDDPILCLSLSPASDPRLSHTMLGEILNYYTHWAGSLKFTFLFCGFMMATGKLLVSYAPPGADPPKKRKEAMLGTHVIWDIGLQSSCTMVVPWISNTTYRQTIDDSFTEGGYISVFYQTRIVVPLSTPREMDILGFVSACNDFSVRLLRDTTHIEQKALAQ
binding result (PV GST-2C^ATPase): binds
